Source: publication PMC7847995, “Site-directed mutagenesis identified the key active site residues of alcohol acyltransferase PpAAT1 responsible for aroma biosynthesis in peach fruits” (Horticulture Research, 2021)

Legend:
PpAAT1 = target: T1, PpAAT1 (Prunus persica, UniProt M5WU76); test: esterification assay; assay type: biochemical; settings: co-substrate acetyl-CoA
T1 construct: gene AAT1; codon-optimised, C-terminal polyhistidine tag, pET-30a(+), expressed in E. coli, purified; HxxxD motif HAMCD at H165-D169

[1] = substrate: CCCCCCC(O)CCC(=O)SCCNC(=O)CCNC(=O)[C@H](O)C(C)(C)COP(=O)(O)OP(=O)(O)OC[C@H]1O[C@@H](n2cnc3c(N)ncnc32)[C@H](O)[C@@H]1OP(=O)(O)O; test: GC-MS of gamma-decalactone formation; assay type: biochemical, Prunus persica; settings: internal esterification to gamma-decalactone; ±SE, n = 3
Source text: GC-MS of gamma-decalactone formation on PpAAT1

Molecule	Kcat/Km (PpAAT1; product hexyl acetate)	Kcat/Km (PpAAT1; product propyl acetate)	Km [1]	kcat [1] [s⁻¹]	kcat/Km [1] [M⁻¹ s⁻¹]
CCCCCCO [hexanol]	a higher Kcat/Km ratio was observed in all substitutions when hexanol was used as the substrate				
CCCO [propanol]		acetyl–CoA and four different alcohols (propanol, hexanol, benzyl alcohol, and decanol)			
PpAAT1 (Prunus persica; K298F) (protein, codon-optimised, C-terminal polyhistidine tag, pET-30a(+), expressed in E. coli, purified; HxxxD motif HAMCD at H165-D169) MGSLCPLLFPVNRFEPELITPAKPTPIETKQLSDIDDQDGLRFHFPVIISYKNNPSMKGNDAVMVIREALSRALVYYYPLAGRLREGPNRKLMVECNGEGVLFIEANADVTLEQLGDRILPPCPVLEEFLSNPPGSDGILGCPLLLVQVTRLTCGGFIFGLRINHAMCDAVGLAKFLNAIGEMAQGADSLSVPPVWARELLNARDPPTVTRWHYEYDQLLDSQGSFIAAIDQSNMAQRSFYFGPQQIRALRKHLPPHLSTCSSFELITACVWRCRTLSLRLNPKDTVRISCAVNARGFSINDLCLPSGFYGNAFSIPTAVSTVELLCASPLGYGVELVRKSKAQMDKEYMQSLADFFVIRGRPPLPMGWNVFIVSDNRHTGFGEFDVGWGRPLFAGLARAFSMISFYVRDNNQEEEFGTLVPICLPSTSLERFEEELKKMTLEHVEEISK			10.1014 (±1.4928) mM	0.451 ± 0.0624	44.1 ± 7.9
PpAAT1 (Prunus persica; K342F) (protein, codon-optimised, C-terminal polyhistidine tag, pET-30a(+), expressed in E. coli, purified; HxxxD motif HAMCD at H165-D169) MGSLCPLLFPVNRFEPELITPAKPTPIETKQLSDIDDQDGLRFHFPVIISYKNNPSMKGNDAVMVIREALSRALVYYYPLAGRLREGPNRKLMVECNGEGVLFIEANADVTLEQLGDRILPPCPVLEEFLSNPPGSDGILGCPLLLVQVTRLTCGGFIFGLRINHAMCDAVGLAKFLNAIGEMAQGADSLSVPPVWARELLNARDPPTVTRWHYEYDQLLDSQGSFIAAIDQSNMAQRSFYFGPQQIRALRKHLPPHLSTCSSFELITACVWRCRTLSLRLNPKDTVRISCAVNARGKSINDLCLPSGFYGNAFSIPTAVSTVELLCASPLGYGVELVRKSFAQMDKEYMQSLADFFVIRGRPPLPMGWNVFIVSDNRHTGFGEFDVGWGRPLFAGLARAFSMISFYVRDNNQEEEFGTLVPICLPSTSLERFEEELKKMTLEHVEEISK			5.0532 (±0.3364) mM	1.32 ± 0.0927	262 ± 74.2
PpAAT1 (Prunus persica; H379V) (protein, codon-optimised, C-terminal polyhistidine tag, pET-30a(+), expressed in E. coli, purified; HxxxD motif HAMCD at H165-D169) MGSLCPLLFPVNRFEPELITPAKPTPIETKQLSDIDDQDGLRFHFPVIISYKNNPSMKGNDAVMVIREALSRALVYYYPLAGRLREGPNRKLMVECNGEGVLFIEANADVTLEQLGDRILPPCPVLEEFLSNPPGSDGILGCPLLLVQVTRLTCGGFIFGLRINHAMCDAVGLAKFLNAIGEMAQGADSLSVPPVWARELLNARDPPTVTRWHYEYDQLLDSQGSFIAAIDQSNMAQRSFYFGPQQIRALRKHLPPHLSTCSSFELITACVWRCRTLSLRLNPKDTVRISCAVNARGKSINDLCLPSGFYGNAFSIPTAVSTVELLCASPLGYGVELVRKSKAQMDKEYMQSLADFFVIRGRPPLPMGWNVFIVSDNRVTGFGEFDVGWGRPLFAGLARAFSMISFYVRDNNQEEEFGTLVPICLPSTSLERFEEELKKMTLEHVEEISK			8.2152 (±0.9510) mM	0.362 ± 0.0249	44.1 ± 3.6
PpAAT1 (Prunus persica; R339V) (protein, codon-optimised, C-terminal polyhistidine tag, pET-30a(+), expressed in E. coli, purified; HxxxD motif HAMCD at H165-D169) MGSLCPLLFPVNRFEPELITPAKPTPIETKQLSDIDDQDGLRFHFPVIISYKNNPSMKGNDAVMVIREALSRALVYYYPLAGRLREGPNRKLMVECNGEGVLFIEANADVTLEQLGDRILPPCPVLEEFLSNPPGSDGILGCPLLLVQVTRLTCGGFIFGLRINHAMCDAVGLAKFLNAIGEMAQGADSLSVPPVWARELLNARDPPTVTRWHYEYDQLLDSQGSFIAAIDQSNMAQRSFYFGPQQIRALRKHLPPHLSTCSSFELITACVWRCRTLSLRLNPKDTVRISCAVNARGKSINDLCLPSGFYGNAFSIPTAVSTVELLCASPLGYGVELVVKSKAQMDKEYMQSLADFFVIRGRPPLPMGWNVFIVSDNRHTGFGEFDVGWGRPLFAGLARAFSMISFYVRDNNQEEEFGTLVPICLPSTSLERFEEELKKMTLEHVEEISK			8.8556 (±1.4954) mM	0.322 ± 0.0547	36.3 ± 5.1
PpAAT1 (Prunus persica; F382Y) (protein, codon-optimised, C-terminal polyhistidine tag, pET-30a(+), expressed in E. coli, purified; HxxxD motif HAMCD at H165-D169) MGSLCPLLFPVNRFEPELITPAKPTPIETKQLSDIDDQDGLRFHFPVIISYKNNPSMKGNDAVMVIREALSRALVYYYPLAGRLREGPNRKLMVECNGEGVLFIEANADVTLEQLGDRILPPCPVLEEFLSNPPGSDGILGCPLLLVQVTRLTCGGFIFGLRINHAMCDAVGLAKFLNAIGEMAQGADSLSVPPVWARELLNARDPPTVTRWHYEYDQLLDSQGSFIAAIDQSNMAQRSFYFGPQQIRALRKHLPPHLSTCSSFELITACVWRCRTLSLRLNPKDTVRISCAVNARGKSINDLCLPSGFYGNAFSIPTAVSTVELLCASPLGYGVELVRKSKAQMDKEYMQSLADFFVIRGRPPLPMGWNVFIVSDNRHTGYGEFDVGWGRPLFAGLARAFSMISFYVRDNNQEEEFGTLVPICLPSTSLERFEEELKKMTLEHVEEISK			9.0224 (±0.7366) mM	0.373 ± 0.0138	41.3 ± 2.7
PpAAT1 (Prunus persica; A170S) (protein, codon-optimised, C-terminal polyhistidine tag, pET-30a(+), expressed in E. coli, purified; HxxxD motif HAMCD at H165-D169) MGSLCPLLFPVNRFEPELITPAKPTPIETKQLSDIDDQDGLRFHFPVIISYKNNPSMKGNDAVMVIREALSRALVYYYPLAGRLREGPNRKLMVECNGEGVLFIEANADVTLEQLGDRILPPCPVLEEFLSNPPGSDGILGCPLLLVQVTRLTCGGFIFGLRINHAMCDSVGLAKFLNAIGEMAQGADSLSVPPVWARELLNARDPPTVTRWHYEYDQLLDSQGSFIAAIDQSNMAQRSFYFGPQQIRALRKHLPPHLSTCSSFELITACVWRCRTLSLRLNPKDTVRISCAVNARGKSINDLCLPSGFYGNAFSIPTAVSTVELLCASPLGYGVELVRKSKAQMDKEYMQSLADFFVIRGRPPLPMGWNVFIVSDNRHTGFGEFDVGWGRPLFAGLARAFSMISFYVRDNNQEEEFGTLVPICLPSTSLERFEEELKKMTLEHVEEISK			4.5852 (±0.6923) mM	1.28 ± 0.1	278 ± 19.4
PpAAT1 (Prunus persica; A174S) (protein, codon-optimised, C-terminal polyhistidine tag, pET-30a(+), expressed in E. coli, purified; HxxxD motif HAMCD at H165-D169) MGSLCPLLFPVNRFEPELITPAKPTPIETKQLSDIDDQDGLRFHFPVIISYKNNPSMKGNDAVMVIREALSRALVYYYPLAGRLREGPNRKLMVECNGEGVLFIEANADVTLEQLGDRILPPCPVLEEFLSNPPGSDGILGCPLLLVQVTRLTCGGFIFGLRINHAMCDAVGLSKFLNAIGEMAQGADSLSVPPVWARELLNARDPPTVTRWHYEYDQLLDSQGSFIAAIDQSNMAQRSFYFGPQQIRALRKHLPPHLSTCSSFELITACVWRCRTLSLRLNPKDTVRISCAVNARGKSINDLCLPSGFYGNAFSIPTAVSTVELLCASPLGYGVELVRKSKAQMDKEYMQSLADFFVIRGRPPLPMGWNVFIVSDNRHTGFGEFDVGWGRPLFAGLARAFSMISFYVRDNNQEEEFGTLVPICLPSTSLERFEEELKKMTLEHVEEISK			9.1599 (±1.0952) mM	0.399 ± 0.048	43.6 ± 6.9
PpAAT1 (Prunus persica; F264Y) (protein, codon-optimised, C-terminal polyhistidine tag, pET-30a(+), expressed in E. coli, purified; HxxxD motif HAMCD at H165-D169) MGSLCPLLFPVNRFEPELITPAKPTPIETKQLSDIDDQDGLRFHFPVIISYKNNPSMKGNDAVMVIREALSRALVYYYPLAGRLREGPNRKLMVECNGEGVLFIEANADVTLEQLGDRILPPCPVLEEFLSNPPGSDGILGCPLLLVQVTRLTCGGFIFGLRINHAMCDAVGLAKFLNAIGEMAQGADSLSVPPVWARELLNARDPPTVTRWHYEYDQLLDSQGSFIAAIDQSNMAQRSFYFGPQQIRALRKHLPPHLSTCSSYELITACVWRCRTLSLRLNPKDTVRISCAVNARGKSINDLCLPSGFYGNAFSIPTAVSTVELLCASPLGYGVELVRKSKAQMDKEYMQSLADFFVIRGRPPLPMGWNVFIVSDNRHTGFGEFDVGWGRPLFAGLARAFSMISFYVRDNNQEEEFGTLVPICLPSTSLERFEEELKKMTLEHVEEISK			3.0241 (±0.5145) mM	2.53 ± 0.287	836 ± 122
PpAAT1 (Prunus persica; S262A) (protein, codon-optimised, C-terminal polyhistidine tag, pET-30a(+), expressed in E. coli, purified; HxxxD motif HAMCD at H165-D169) MGSLCPLLFPVNRFEPELITPAKPTPIETKQLSDIDDQDGLRFHFPVIISYKNNPSMKGNDAVMVIREALSRALVYYYPLAGRLREGPNRKLMVECNGEGVLFIEANADVTLEQLGDRILPPCPVLEEFLSNPPGSDGILGCPLLLVQVTRLTCGGFIFGLRINHAMCDAVGLAKFLNAIGEMAQGADSLSVPPVWARELLNARDPPTVTRWHYEYDQLLDSQGSFIAAIDQSNMAQRSFYFGPQQIRALRKHLPPHLSTCASFELITACVWRCRTLSLRLNPKDTVRISCAVNARGKSINDLCLPSGFYGNAFSIPTAVSTVELLCASPLGYGVELVRKSKAQMDKEYMQSLADFFVIRGRPPLPMGWNVFIVSDNRHTGFGEFDVGWGRPLFAGLARAFSMISFYVRDNNQEEEFGTLVPICLPSTSLERFEEELKKMTLEHVEEISK			2.9920 (±0.3836) mM	2.36 ± 0.364	790 ± 190
PpAAT1 (Prunus persica) (protein, codon-optimised, C-terminal polyhistidine tag, pET-30a(+), expressed in E. coli, purified; HxxxD motif HAMCD at H165-D169) MGSLCPLLFPVNRFEPELITPAKPTPIETKQLSDIDDQDGLRFHFPVIISYKNNPSMKGNDAVMVIREALSRALVYYYPLAGRLREGPNRKLMVECNGEGVLFIEANADVTLEQLGDRILPPCPVLEEFLSNPPGSDGILGCPLLLVQVTRLTCGGFIFGLRINHAMCDAVGLAKFLNAIGEMAQGADSLSVPPVWARELLNARDPPTVTRWHYEYDQLLDSQGSFIAAIDQSNMAQRSFYFGPQQIRALRKHLPPHLSTCSSFELITACVWRCRTLSLRLNPKDTVRISCAVNARGKSINDLCLPSGFYGNAFSIPTAVSTVELLCASPLGYGVELVRKSKAQMDKEYMQSLADFFVIRGRPPLPMGWNVFIVSDNRHTGFGEFDVGWGRPLFAGLARAFSMISFYVRDNNQEEEFGTLVPICLPSTSLERFEEELKKMTLEHVEEISK			2.6187 (±0.2511) mM	2.72 ± 0.146	1040 ± 91.6
PpAAT1 (Prunus persica; F314Y) (protein, codon-optimised, C-terminal polyhistidine tag, pET-30a(+), expressed in E. coli, purified; HxxxD motif HAMCD at H165-D169) MGSLCPLLFPVNRFEPELITPAKPTPIETKQLSDIDDQDGLRFHFPVIISYKNNPSMKGNDAVMVIREALSRALVYYYPLAGRLREGPNRKLMVECNGEGVLFIEANADVTLEQLGDRILPPCPVLEEFLSNPPGSDGILGCPLLLVQVTRLTCGGFIFGLRINHAMCDAVGLAKFLNAIGEMAQGADSLSVPPVWARELLNARDPPTVTRWHYEYDQLLDSQGSFIAAIDQSNMAQRSFYFGPQQIRALRKHLPPHLSTCSSFELITACVWRCRTLSLRLNPKDTVRISCAVNARGKSINDLCLPSGFYGNAYSIPTAVSTVELLCASPLGYGVELVRKSKAQMDKEYMQSLADFFVIRGRPPLPMGWNVFIVSDNRHTGFGEFDVGWGRPLFAGLARAFSMISFYVRDNNQEEEFGTLVPICLPSTSLERFEEELKKMTLEHVEEISK			4.2018 (±0.5997) mM	1.11 ± 0.119	265 ± 31.1
